Experimental data reported in the domain aggregation screens of Martell et al. (2025).

Test: soluble fraction after stress (log2 fold change); higher = more stays soluble; pooled small domains, quantitative proteomics
Conditions: stress: pH 4
Summary of the method: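 Values are log2 fold changes, and higher ones mean more of the domain stayed soluble. Each fold change reflects the soluble amount of a domain after acid stress and is taken as a measure of aggregation propensity. The stress was pH 4, applied to pooled custom libraries of small protein domains analysed by high-throughput quantitative proteomics.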

Sequence | soluble fraction (log2)
HMFSIDRNIRRLRKEAGLTQEELAQKLFVTRQTISLWELGKVHPDLETLQKLAEQFQVDLLQVLYGPE | -2.41
HMSDFSNLNLLELNSSELDLLLRRASSQGLTQMDLLKMARSQGLSEADLIKVKGKIDTSESIKR | -0.0416
HMGIRDIHITVNGESLKLSKKQNYIFVDIFDFYPFDLSILGGSKLITTINGEQAEFTSPLKDGDVVELYWK | -0.977
HMESNWLTYAKRIQSIADTGMTFAVDDFDKERYQELADISSKMLADLSNIPIGRIENLLGPLGQ | -1.26
HMGTPEQVVVSSVLKETNEIVLKWPADGFMAKYKMDNLNLNFEPVHGQGVMGYFIGSRLIKLELV | -0.33
HMKRTLLLEGRTIPYELTQKPVKNINIRVHADGSVRVSAGPWVSPEAVDAVLRQRSAFLLRALDQFAAQAP | -0.923
HMNHHEIIMKNIDTLLKEKNISISKLEKSLGISNGYISRLRNGKYNFSLDLLLKLAKKFKISIDYLLTDFD | -0.119
HMKINKQHLAFQIFGIRAKLGLSMEQFGELLGANKSSVSGWERGTVVPSSQRLKKIAELGKISLAELLTP | 0.276
HMHDAKAEIIRLSALLTEYQRSYYIDGHSQVSDLEYDRLFDRLVALETSHPELREADSPTQRV | -1.14
HMGTGIKQVNVVSVIGQDEETAKTTLTNLGLKVNVTYATSTSDNGKVTKQSIDAGKTVDEGTSVTITVNKV | -0.269
HMTVTTDITQYFLQENGLLNGPNARQLRQKIGETLNIGYTNGKQLLKRAQQFGLTRDQILTALKK | 0.278
HMDVEMLIDKYQLNDSEAEVLRFMKKNRQSLKTIGIRDVAKATYVSTATIINMAKKIGYSGYSELVFALGN | -0.319
HMQVSDVTTIRALVEEVLSSSPQQLAQYRAGKLSLKGYFVGQVMKKGKGQLNAAAVNNLLDEIL | 0.36
HMQEAATSLNAKILAKLRENNGTLAVSDKSDPALISSLFGVSKGNFKKAIGALYKNGQIVIHADRIEL | 0.00478
HMAVQAESDIIKRAALLRNLGNTSMQLKNIDQAIDFYKQGIKLHPEDAELKYNLSQALRQKSQSNN | 0.186
HMYTDGVPALTDLKKESKPGRRQYVGVEDIPKVLGGLGITILSTSKGLMSGHQAKKKNIGGELIASV | -0.0153
HMRITEQRRTLAKLFADTPGYLSPKDVYDYMGRFYPGLSFDTVYRNLRLLDELGVLEQVVFEDGVKFK | -0.677
HMTTIAQMTGPQRAAVILLVLGEDHGRTIWQEFDDDEIRIITRAMAELGTVDADEVERLMLDFVGKLSS | -1.75
HMDERLAKLTPQERKILDLIAEGATNRQIGTELHLAEKTVKNYVSNMLMKLGMSRRTEAAVFAVKASIN | ≥ 0.43
HMVKRAYGEYVNVKLTDADLSKLKADFPADWQERIERLSTYMASTGKTYKNHLATIRNWARRDAERVSA | -0.292
HMIGTPLSEWQKDAPEEITRDQIAELVILKFVTVEQLALASDAQLQRIGMGGVGLRERAKLYLNRK | -0.316
HMLINIKTNSAVNVRSGPGMGFEVVNTYPSGYILQAKEMQKDGGDNVWYKVKDGWLSANYTIDI | 0.394
HMFHDALVSFAERRVIFMKELVNRLNEARKAYYEGESIMSDKEYDNLYDKLVKMELTTGVVLPNSPTEEVG | -0.754
HMKTMAVYPVGTRVLTSDGEIGVVEKQNSEAPERPVIKILKGADGHDYEKPDFKDLMKILTLFIVDTI | 0.0457
HMGLTRRAQLEVADANLKRLYPGMHQSWVTAIAEYLHSSYWRYINSLEPEYAASIQRVYEQHIDAM | -0.0592
HMVLVGERRQKILEVVSSGKAVTVEELSRILHVSPSTVRRDLRFLESRGLLYRTHGGAMPPV | -0.0726

Sequence | soluble fraction (log2)
HMNMSVGAALRRRRNELGMTLRELADEAELTSGFLSQVENDRVSPSLKSLGRIAEVLRIPLFQLLS | -0.659
HMSQDVLLKRSGDQIEVKITEVGEDYLKYKKKGFENGPDFKINTSDVFMVTFANGEKMMFEES | -2.15
HMLAQISDEGAIGAVVARVLDAHPNEVARYHAGEEKVAKFLMGAAMRELRGKGDPAVVQRLLSEGLDARRV | 0.294
HMSDPFSPTTTLKNRAKSVLSVDSFEDFKLFIKKMWQEKKEGVYQNPNVETWKDWDNISVKDAKILISLI | -0.327
HMIPESVQGIEEFLATGALKGIGKKTAAAIVHKFGKDTLRIMEEEPERLAEVSGIGEKKAAAIGEAFALH | -0.236
HMAIDPLLDKGYEQYDKGEFTEAVKSFNRAIEIDPKNAEAHFLRAMTYQGLALSKLAVADLEKAIV | -0.127
HMEQTMNDMLKLVDLLPQNQQDIVRMRFYENMSFKEIAESNQISINTALGRMRYAILNLRKYAAERNL | -1.57
HMSLEEQNGAKDRQVEAYELLLKAQRALDQEDTAGFQAAMKDLEPLSSQLDAQGQTLYHELLPFVS | -0.246
HMFELTVGTPIRVIREPYFGKLGTVTELPAQLMVVESGTEVRVLKAKIEGEGEVLVPRANVEIIATG | -0.77
HMKGRPTTAIITDERTNLRSGPGATNKTIAQAGAGEKLAIIDEKDGWYQVSRAGINGWVAGWVIDVAW | -0.945
HMSAAYVYVTGTRVNQRDGPSTFDRVMGVLVEGTRVQLLRDQGQWAQIRSDLGTGWLSSGFLSRNG | 0.0158
HMEYLIENYGSVINQARMKKGMTQEQLSSKTGVSQAYIRSIESQNMKPTDAVARKIEFELGIKLFE | 0.147
HMGDLKSLIQATMDDAGISIKPDAMDYLISHLGSDRLTTRAELDKLILYAGADDKLDLDSVVELVG | -0.794
HMGDEPGAGYKWREDVLLRVMSEHGIDESARDDFVRHAVKFDDDDNLYLKKAEIIAAAEAWESSS | -2.05
HMNSKQELAYQTIRARIVDGSYGPGYRIVIDEVARELGVSPIPVREAVRRLEAEGLITYTRHAGARVVA | -0.273
HMAHSWEAIRVKLQQIIDEEDKTKPLNDDQIKEKLAEAGIPNLARRTVAKYRKLLNIPTARFRKR | 0.208
HMDVPNLVGEEIKDVRRTLRHFQLEVIGEGSKIVSQVPKHGQRLPENTTIRVYLN | -0.0434
HMPRPLVAPMPGLIVRVTAVVGDSVDAGQGLVVMEAMKMENELRTTTAGVVKTVHVQPGVAVEKGALLIEF | -0.766
HMQISMQNIASVKIDDLSDEQIQEFSTKYTAAGYSFPDVENVAKQKGMPSSEIEKLRQRVLTAQNTQEK | -0.346
HMDNRLFKMLYYLLDKERATAPELAAEFEVSTRTIYRDVEALSSAGIPIYAEPGRNGGIYLLQD | -1.1
HMPPGQIVNEALQRAGNSTPTGTAISAQDDIKLYTSALAELATQGDTSSASVAKLREALQTAQVAFYNAV | 0.0927
HMKTIQVGSTVRVNQGAKTYSGGGLASFVYKRNHKVSQLQGDRAVITYEGTVVAAVHVSDLSLIH | -0.801
HMLENYEGFKQKILKLTGIDLSSYKERQMRRRIDSLIHRNNYDDYDEYFKALTQNSNLYDEFINYLTI | -0.424
HMDNIPAHIKAKIINYVNRNYPGAIIKDIERKSNGRYEAEIVYNNREYDLLFDAQGNFISASLDDK | -0.32
HMNSISDSELKALIKNNYLKFLKRIASDEEIEYHFNQIKNKTILLDELDSIFQNSQEYKDLVEHNNKIQN | -0.809
HMDNEIMYPIQINGKVRAELFVSTERAMDKQYVLEQAKANEKIQGYLEGNRLVKEIFVPKRIVNLVIAP | 0.184

Sequence | soluble fraction (log2)
HMRDPLNTGFRQTLKDIVNSLPKNELYSPGVREEYIYPKIGVTSLGMEASMVLNGLISSRRKNIELKEKN | 0.179
HMDDVIDVYATYDVSPTNQISNIKLYSDAAHANPVTGEAGKSYNDITEGHPGYQFRWSGTTWVPI | 0.0332
HMLPELIVTTKKGVTVTVTNGVITYSATSNGKATFTVPNYGKWTVSATINGTVISKVVDVTEAKQIPVLLG | -0.318
HMRQDEKTLLYWIGAQVKREGKLIKTSTAQYLVEKTGTDMENLEKELEKLFAYTLDEKEITPAAIDEI | -1.21
HMGNIYKALLGKLEKQLGFLPEGTKLPPEQELAEKFGVSKPTLRRALAELAVRGIIVKQNGIGSVVAGS | ≥ 0.43
HMTPAKQVSAKAERWIDQLGSSDWEKREEAAAELKKLGGAAKSALEKALKNADPEVASKAEELLEALES | 0.213
HMQSLIVPVPKPEDDPVYKDGIKQDPVEVVSIWLGRDYLNMILNLKVSTGKGHTFGIVEDVS | -0.383
HMEPKQIEVPNLVGISSAAARQTLSALGLHAVVKDSIWSETERIDTVLEQNPAGGALIKPEGTVYLRVSR | 0.0547
HMKKQLTISDGDWAGKVSSMLEDMGVINSASEFDKYLSDNGYSNVIKSGTYDVSPEDTFQELAEKIT | -1.05
HMKRISDEDLLVMRRIDEVHTYHPTWGYRTITRILRRDDHLLINPKKVRRIMRDMGIYTIYPK | -0.41
HMGLDNEGFERLRQKITRLLSEEALPVKELVDSFASKMRQEVLETLAFLQQEGVIEEKNGKLFLK | -0.283
HMDPQDGTVKFFNGARGFGFITPDGGGADVFVHVSAVERAGLTQLVEGQRVNFQTLPDTKGKGPKAVNLKV | -0.531
HMTPQDYEYLRKLLKDQSGLDLSVDKQYLLESRLVPLSRKAGLAGIPELVQKMKAGSASLTAQVVEAMTT | 0.07
HMSNRIDKIKLNHWLNIRKTSLDVLNNLLSKHLNHKINFENLENLDEQAIEKISEVLSIPKNKLLINDDVP | -0.226
HMDDEDLAFLQREFVSYQQAMDYYGLGYKPVVRLSHISGSVYKIGKKVLIRRNIFEEYLRNHV | -0.666
HMPGRPSRISDAVKDQIDHDLRKNPRDLGYSQNLWDGKLLSHHLKERYQITLGIRQAQRLFHQLGFRQR | -0.0409
HMHGTIHSAAYGGDIEAVKKFLAAGADVNANGGGRTPLDLAIQVKNTEIADLLRKHGGKTGDELKA | 0.398
HMEDLGYVKVASQTAAIRKSAAVQAGQIGTVHEGETYRYLGEEEGWYLVEYNGQKAYISWDDGEL | -0.553
HMSEVPVLVAKTDIKELELIDDRKVTLINVPQKFKMPGSFNSPEEVYNTIAAVPIKEGEQITKPRVTWP | -0.443
HMLTNNYKNDKALRFAKNHGIHESNILKLVSLYENAPEKGFNAQSIAELLGITPRSASRILVKLLQHNLIR | 0.381
HMGDTIFINNNFYVKHIVEFGETIDIISKIYDVSVNKILETNETSTKLYSGQSLFIPININV | -1.99
HMSSDDEAFKRELVGLIPHLRAFARTLTGDPTAADDLAQDAMMKAWDARASYQMGTNMKAWTFMILRNQFY | -1.65
HMAISSADRIVAELRTWISGASPGTQLPSSRTLAARYGASPVTVQKALHTLAGMGLVEARPGAGTFVRRQS | ≥ 0.43
HMQNYLEFIGNELKALTSIPSPSGYTKDVAAYLMKTLSDMGYEPQLSNKGNVFVTIGGEGNPLVLAAHVD | -0.436
